From patent publication EP3470426A1 (Numab Therapeutics AG, dated 2019)
Each block holds one binder with its values, some of them ahead of it.

Assays:
Experiment in all cases: cell-based or functional assay
[1] = biological target: T1, CD137 on Jurkat NFkB reporter cells (human, UniProt Q07011 24-255)
[2] = biological target: T1, CD137 on Jurkat NFkB reporter cells; remark: listed apart in the source
human PD-L1 on cells = human PD-L1 on cells (human, UniProt Q9NZQ7 19-290)
[3] = biological target: T1, CD137 on Jurkat NFkB reporter cells; remark: listed apart in the source
[4] = biological target: T1, CD137 on Jurkat NFkB reporter cells; remark: listed apart in the source

- EC50, NFkB-luciferase reporter, PD-L1 expressing CHO cells, 24h [1]: 0.0808 µg/mL
- EC50, NFkB-luciferase reporter, HCC827 with IFNy stimulation, 24h [2]: 0.0175 µg/mL
- EC50, NFkB-luciferase reporter, HCC827 without IFNy stimulation, 24h [2]: 0.0136 µg/mL
- IC50, NFAT-luciferase reporter gene assay (human PD-L1 on cells): 0.133 µg/mL
- EC50, NFkB-luciferase reporter, PD-L1 expressing CHO cells, 6h [3]: 0.0564 µg/mL
B1: PRO1060 (bispecific antibody, human IgG1, kappa, L234A L235A)
light: DIQMTQSPSSLSASVGDRVTITCQASQSINDYLAWYQQKPGKAPKLLIYKASTLASGVPSRFSGSGSGTDFTLTISSLQPEDFATYYCQQGYIITDIDNVFGTGTKVTVLGTVAAPSVFIFPPSDEQLKSGTASVVCLLNNFYPREAKVQWKVDNALQSGNSQESVTEQDSKDSTYSLSSTLTLSKADYEKHKVYACEVTHQGLSSPVTKSFNRGEC
heavy: QVQLQESGPGLVKPSETLSLTCKVSGFSFSSGYDMCWIRQPPGKGLEWIGCVVAGSVDITYYASWAKGRVTISVDSSKNQFSLKLSSVTAADTAVYYCARKDAYSDAFNLWGQGTLVTVSSASTKGPSVFPLAPSSKSTSGGTAALGCLVKDYFPEPVTVSWNSGALTSGVHTFPAVLQSSGLYSLSSVVTVPSSSLGTQTYICNVNHKPSNTKVDKRVEPKSCDKTHTCPPCPAPEAAGGPSVFLFPPKPKDTLMISRTPEVTCVVVDVSHEDPEVKFNWYVDGVEVHNAKTKPREEQYNSTYRVVSVLTVLHQDWLNGKEYKCKVSNKALGAPIEKTISKAKGQPREPQVYTLPPSREEMTKNQVSLTCLVKGFYPSDIAVEWESNGQPENNYKTTPPVLDSDGSFFLYSKLTVDKSRWQQGNVFSCSVMHEALHNHYTQKSLSLSPGKGGGGSGGGGSIQMTQSPSSLSASVGDRVTITCQASQSINNVLAWYQQKPGKAPKLLIYRASTLASGVPSRFSGSGSGTDFTLTISSLQPEDFATYYCQSSYGNYGDFGTGTKVTVLGGGGGSGGGGSGGGGSGGGGSQVQLQESGPGLVKPSETLSLTCKVSGFSFSNSYWICWIRQPPGKGLEWIGCTFVGSSDSTYYANWAKGRVTISVDSSKNQFSLKLSSVTAADTAVYYCARHPSDAVYGYANNLWGQGTLVTVSS

- EC50, NFkB-luciferase reporter, PD-L1 expressing CHO cells, 24h, + HSA [1]: 0.121 µg/mL
- max. activation (%), NF-kB reporter, CHO-PD-L1, HSA yes, 24h [4]: 36.2%
- EC50, NFkB-luciferase reporter, PD-L1 expressing CHO cells, 6h, + HSA [3]: 0.0709 µg/mL
B2: PRO1058 (other)
chain: DIQMTQSPSSLSASVGDRVTITCQASQSINDYLAWYQQKPGKAPKLLIYKASTLASGVPSRFSGSGSGTDFTLTISSLQPEDFATYYCQQGYIITDIDNVFGTGTKVTVLGGGGGSQVQLQESGPGLVKPSETLSLTCKVSGFSFNNDYDMCWIRQPPGKGLEWIGCIDTGDGSTYYASWAKGRVTISVDSSKNQFSLKLSSVTAADTAVYYCAREAASSSGYGMGYFDLWGQGTLVTVSSGGGGSGGGGSGGGGSGGGGSIQMTQSPSSLSASVGDRVTITCQSSQSVYDNNWLAWYQQKPGKAPKLLIYRASNLASGVPSRFSGSGSGTDFTLTISSLQPEDFATYYCQGTYLSSNWYWAFGTGTKVTVLGGGGGSQVQLQESGPGLVKPSETLSLTCKVSGFSFSSGYDMCWIRQPPGKGLEWIGCVVAGSVDITYYASWAKGRVTISVDSSKNQFSLKLSSVTAADTAVYYCARKDAYSDAFNLWGQGTLVTVSSGGGGSGGGGSVVMTQSPSSLSASVGDRVTITCQASQIISSRSAWYQQKPGQPPKLLIYQASKLASGVPSRFSGSGSGTDFTLTISSLQPEDFATYYCQCTYIDSNFGAFGGGTKLTVLGGGGGSGGGGSGGGGSGGGGSEVQLVESGGGLVQPGGSLRLSCAASGFSFSSSYWICWVRQAPGKGLEWVGCVFTGDGTTYYASWAKGRFTISRDNSKNTVYLQMNSLRAEDTATYFCARPVSVYYYGMDLWGQGTLVTVSS

- IC50, NFAT-luciferase reporter gene assay (human PD-L1 on cells): 0.0213 µg/mL
B3: PRO1013 (scFv)
scFv: DIQMTQSPSSLSASVGDRVTITCQASQSIGTYLAWYQQKPGKAPKLLIYRAFILASGVPSRFSGSGSGTDFTLTISSLQPEDFATYYCQSNFYSDSTTIGPNAFGTGTKVTVLGGGGGSGGGGSGGGGSGGGGSQVQLVQSGAEVKKPGASVKVSCKASGFSFNSDYWIYWVRQAPGQGLEWMGSIYGGSSGNTQYASWAQGRVTMTRDTSISTAYMELSSLRSEDTAVYYCARGYVDYGGATDLWGQGTLVTVSS

- IC50, NFAT-luciferase reporter gene assay (human PD-L1 on cells): 0.0429 µg/mL
B4: PRO830 (scFv)
scFv: DIQMTQSPSSLSASVGDRVTITCQASQSINDYLAWYQQKPGKAPKLLIYKASTLASGVPSRFSGSGSGTDFTLTISSLQPEDFATYYCQQGYIITDIDNVFGTGTKVTVLGGGGGSGGGGSGGGGSGGGGSQVQLQESGPGLVKPSETLSLTCKVSGFSFSSGYDMCWIRQPPGKGLEWIGCVVAGSVDITYYASWAKGRVTISVDSSKNQFSLKLSSVTAADTAVYYCARKDAYSDAFNLWGQGTLVTVSS

- IC50, NFAT-luciferase reporter gene assay, with HSA (human PD-L1 on cells): 0.275 µg/mL
- max. activation (%), NF-kB reporter, CHO-PD-L1, HSA yes, 24h [4]: 369%
B5: PRO963 (other)
chain: DIQMTQSPSSLSASVGDRVTITCQASQSINDYLAWYQQKPGKAPKLLIYKASTLASGVPSRFSGSGSGTDFTLTISSLQPEDFATYYCQQGYIITDIDNVFGTGTKVTVLGGGGGSQVQLQESGPGLVKPSETLSLTCKVSGFSFSNSYWICWIRQPPGKGLEWIGCTFVGSSDSTYYANWAKGRVTISVDSSKNQFSLKLSSVTAADTAVYYCARHPSDAVYGYANNLWGQGTLVTVSSGGGGSGGGGSGGGGSGGGGSIQMTQSPSSLSASVGDRVTITCQASQSINNVLAWYQQKPGKAPKLLIYRASTLASGVPSRFSGSGSGTDFTLTISSLQPEDFATYYCQSSYGNYGDFGTGTKVTVLGGGGGSQVQLQESGPGLVKPSETLSLTCKVSGFSFSSGYDMCWIRQPPGKGLEWIGCVVAGSVDITYYASWAKGRVTISVDSSKNQFSLKLSSVTAADTAVYYCARKDAYSDAFNLWGQGTLVTVSSGGGGSGGGGSIQMTQSPSSLSASVGDRVTITCQSSESVYSNNQLSWYQQKPGQPPKLLIYDASDLASGVPSRFSGSGSGTDFTLTISSLQPEDFATYYCAGGFSSSSDTAFGGGTKLTVLGGGGGSGGGGSGGGGSGGGGSEVQLVESGGGLVQPGGSLRLSCAASGFSLSSNAMGWVRQAPGKGLEYIGIISVGGFTYYASWAKGRFTISRDNSKNTVYLQMNSLRAEDTATYFCARDRHGGDSSGAFYLWGQGTLVTVSS

- IC50, NFAT-luciferase reporter gene assay (human PD-L1 on cells): 0.0938 µg/mL
B6: PRO1059 (bispecific antibody, human IgG1, kappa, L234A L235A)
light: DIQMTQSPSSLSASVGDRVTITCQASQSINDYLAWYQQKPGKAPKLLIYKASTLASGVPSRFSGSGSGTDFTLTISSLQPEDFATYYCQQGYIITDIDNVFGTGTKVTVLGTVAAPSVFIFPPSDEQLKSGTASVVCLLNNFYPREAKVQWKVDNALQSGNSQESVTEQDSKDSTYSLSSTLTLSKADYEKHKVYACEVTHQGLSSPVTKSFNRGECGGGGSGGGGSIQMTQSPSSLSASVGDRVTITCQASQSINNVLAWYQQKPGKAPKLLIYRASTLASGVPSRFSGSGSGTDFTLTISSLQPEDFATYYCQSSYGNYGDFGTGTKVTVLGGGGGSGGGGSGGGGSGGGGSQVQLQESGPGLVKPSETLSLTCKVSGFSFSNSYWICWIRQPPGKGLEWIGCTFVGSSDSTYYANWAKGRVTISVDSSKNQFSLKLSSVTAADTAVYYCARHPSDAVYGYANNLWGQGTLVTVSS
heavy: QVQLQESGPGLVKPSETLSLTCKVSGFSFSSGYDMCWIRQPPGKGLEWIGCVVAGSVDITYYASWAKGRVTISVDSSKNQFSLKLSSVTAADTAVYYCARKDAYSDAFNLWGQGTLVTVSSASTKGPSVFPLAPSSKSTSGGTAALGCLVKDYFPEPVTVSWNSGALTSGVHTFPAVLQSSGLYSLSSVVTVPSSSLGTQTYICNVNHKPSNTKVDKRVEPKSCDKTHTCPPCPAPEAAGGPSVFLFPPKPKDTLMISRTPEVTCVVVDVSHEDPEVKFNWYVDGVEVHNAKTKPREEQYNSTYRVVSVLTVLHQDWLNGKEYKCKVSNKALGAPIEKTISKAKGQPREPQVYTLPPSREEMTKNQVSLTCLVKGFYPSDIAVEWESNGQPENNYKTTPPVLDSDGSFFLYSKLTVDKSRWQQGNVFSCSVMHEALHNHYTQKSLSLSPGK
